Measurements as given in patent US20190018005A1.

Columns and labels:
[1] = biological target: 3.3 antibody (an anti-PEG antibody, IgG type); test: ELISA, biotin-3.3Ab 1 µg/mL on plate coated with poly-protein G, streptavidin-HRP, OD405
[2] = biological target: 3.3 antibody (an anti-PEG antibody, IgG type); test: ELISA, biotin-3.3Ab 0.11 µg/mL on plate coated with poly-protein G, streptavidin-HRP, OD405
[3] = biological target: 3.3 antibody (an anti-PEG antibody, IgG type); test: ELISA, biotin-3.3Ab 0.33 µg/mL on plate coated with poly-protein G, streptavidin-HRP, OD405
[4] = biological target: 3.3 antibody (an anti-PEG antibody, IgG type); test: ELISA, biotin-3.3Ab 0.0123 µg/mL on plate coated with poly-protein G, streptavidin-HRP, OD405
[5] = biological target: 3.3 antibody (an anti-PEG antibody, IgG type); test: ELISA, biotin-3.3Ab 0.0371 µg/mL on plate coated with poly-protein G, streptavidin-HRP, OD405

B1: poly-protein G (soluble; HA, eight repeats of C2 domain of protein G with linkers, six histidines) (protein, not shown: small tags and cut ends)
chain: TYKLVINGKTLKGETTTEAVDAATAEKVFKQYANDNGVDGEWTYDDATKTFTVTEGGGGSGGGGSVETYKLVINGKTLKGETTTEAVDAATAEKVFKQYANDNGVDGEWTYDDATKTFTVTEGGGGSGGGGSVETYKLVINGKTLKGETTTEAVDAATAEKVFKQYANDNGVDGEWTYDDATKTFTVTEGGGGSGGGGSVETYKLVINGKTLKGETTTEAVDAATAEKVFKQYANDNGVDGEWTYDDATKTFTVTEGGGGSGGGGSVETYKLVINGKTLKGETTTEAVDAATAEKVFKQYANDNGVDGEWTYDDATKTFTVTEGGGGSGGGGSVETYKLVINGKTLKGETTTEAVDAATAEKVFKQYANDNGVDGEWTYDDATKTFTVTEGGGGSGGGGSVETYKLVINGKTLKGETTTEAVDAATAEKVFKQYANDNGVDGEWTYDDATKTFTVTEGGGGSGGGGSVETYKLVINGKTLKGETTTEAVDAATAEKVFKQYANDNGVDGEWTYDDATKTFTVTEGGGGSGGGGSVHHHHHH
- fold antibody amount loaded vs commercial protein G-based plate [1]: 1.15 times
- fold antibody amount loaded vs traditional polystyrene-based plate [1]: 1.3 times
- fold antibody amount loaded vs commercial protein G-based plate [2]: 4 times
- fold antibody amount loaded vs traditional polystyrene-based plate [2]: 10 times
- fold antibody amount loaded vs commercial protein G-based plate [3]: 1.3 times
- fold antibody amount loaded vs traditional polystyrene-based plate [3]: 2.2 times
- fold antibody amount loaded vs commercial protein G-based plate [4]: 7.8 times
- fold antibody amount loaded vs traditional polystyrene-based plate [4]: 14 times
- fold antibody amount loaded vs commercial protein G-based plate [5]: 5.8 times
- fold antibody amount loaded vs traditional polystyrene-based plate [5]: 20 times
